Experimental data from paper PMC3183031, “An α/β Hydrolase and Associated Per-ARNT-Sim Domain Comprise a Bipartite Sensing Module Coupled with Diverse Output Domains” (PLoS ONE, 2011).
Positions count from the first letter of the chain named. In names and notes the source's numbering stands.

B1: His-tagged wild type RsbP (natural protein, Bacillus subtilis, UniProt O07014 1-403, looked up)
chain: MDKQLNDAPCGFLALSEEGSIIAANRTLIKILDYEPEQVIGQHMNMMLTIPAQLFCQLYFFPLLKLEHHIEEIYISLKARDGEEIPVLINAIARHDSGASVFDCVLIPMRKRNEYENELLIARNEAQEALLAKQKANAELEIALETLKAKQEELLEINKQNQQFKLNTKRELELARKIQKNSLTEPIVNDQVQIDSYYNASSELSGDLYGYYQIDEHRYGIIILDVMGHGISSALITMSLHPLFQRQITQGLSPVKVMKELDRHLHSLFQNDEEARHYCTAIYLEIDIARQRIDYVNAGHPPALWQDDSGTQHLLHATSPPIGMFEDLEFQSSSLSYTEDGRLLLYTDGVMDPTASCYLFDLLKDHPDSPIADLKEKILTSLQHQKEAHHKSDDECFILVDVK
notes: RsbP serine phosphatase, Bacillus subtilis; called full-length in the results and discussion; predicted monomer mass of the His-tagged protein 48,325; also called WT
B2: His-tagged RsbP-F55A (natural protein, Bacillus subtilis, UniProt O07014 1-403, looked up)
chain: B1 chain with F55A
notes: RsbP serine phosphatase, Bacillus subtilis, with F55A

Target: the molecule itself
Assay: SEC; Superose 12 10/300 GL, 4°C, 20 mM Tris-HCl pH 6.9, 100 mM NaCl, 0.1 mM EDTA; protein applied at 2.5 mg/ml; calibrated with standard proteins

| Protein | stoichiometry N | binding result |
| --- | --- | --- |
| B1 | 4 | – |
| B2 | – | binds |
